Experimental data published in US20180258181A1.

Tests used:
[1] = biological target: mesothelin on OVCAR-3 cells (UniProt Q13421); experiment: FACS titration, EC50 on OVCAR-3 against EC50 on NCI-H226
[2] = biological target: mesothelin on OVCAR-3 cells (UniProt Q13421); experiment: FACS titration, IgG on OVCAR-3 cells

Row | Binder | x-fold different EC50 on OVCAR-3 vs. NCI-H226 [1] [fold] | EC50 [2] [nM]
1 | MOR06626 IgG (antibody, V domains shown) VH: QVQLVQSGAEVKKPGASVKVSCKASGYTFTGNYINWVRQAPGQGLEWMGIINPTKGWTLYAQKFQGRVTMTRDTSISTAYMELSSLRSEDTAVYYCARWHHGTWIFDYWGQGTLVTVSS VL: DIVLTQPPSVSGAPGQRVTISCSGSSSNIGSNYVSWYQQLPGTAPKLLIYNDNQRPSGVPDRFSGSKSGTSASLAITGLQSEDEADYYCSTYDRRTFSVFGGGTKLTVLG | 22 | 9.68
2 | MOR06638 IgG (antibody, V domains shown) VH: QVQLVQSGAEVKKPGASVKVSCKASGYTFTGNYINWVRQAPGQGLEWMGIINPHGGDTKYAQKFQGRVTMTRDTSISTAYMELSSLRSEDTAVYYCARWHHGTWIFDYWGQGTLVTVSS VL: DIVLTQPPSVSGAPGQRVTISCSGSSSNIGSNYVSWYQQLPGTAPKLLIYNDNQRPSGVPDRFSGSKSGTSASLAITGLQSEDEADYYCSSWDRADGSYVFGGGTKLTVLG | 22.1 | 
3 | MOR06657 IgG (antibody, V domains shown) VH: QVQLVQSGAEVKKPGSSVKVSCKASGGTFSSYYFSWVRQAPGQGLEWMGGIIPKFGSANYAQKFQGRVTITADESTSTAYMELSSLRSEDTAVYYCARRTSMDYWGQGTLVTVSS VL: DIALTQPASVSGSPGQSITISCTGTSSDVGGYNYVSWYQQHPGKAPKLMIYSVSKRPSGVSNRFSGSKSGNTASLTISGLQAEDEADYYCATWDHSQMGKVFGGGTKLTVLG | 14 | 0.53

More lines, now with the values ahead:

Row | x-fold different EC50 on OVCAR-3 vs. NCI-H226 [1] [fold] | EC50 [2] [nM] | Binder
4 | 0.5 |  | MOR06631 IgG (antibody, V domains shown) VH: QVQLVQSGAEVKKPGESLKISCKGSGYSFTNYWIGWVRQMPGKGLEWMGFIWPVDSWTQYSPSFQGQVTISADKSISTAYLQWSSLKASDTAMYYCARYGHGMYGGALDVWGQGTLVTVSS VL: DIVLTQSPATLSLSPGERATLSCRASQSVRSSRLAWYQQKPGQAPRLLIYGASKRATGVPARFSGSGSGTDFTLTISSLEPEDFATYYCQQYYDFPPTFGQGTKVEIKR
5 | 3.4 |  | MOR06669 IgG (antibody, V domains shown) VH: QVQLVQSGAEVKKPGESLKISCKGSGYSFTNYWIGWVRQMPGKGLEWMGIIWPIDSFTQYSPSFQGQVTISADKSISTAYLQWSSLKASDTAMYYCARYGHGMYGGALDVWGQGTLVTVSS VL: DIVLTQSPATLSLSPGERATLSCRASQSVRSSRLAWYQQKPGQAPRLLIYGASKRATGVPARFSGSGSGTDFTLTISSLEPEDFATYYCQQYYDFPPTFGQGTKVEIKR
6 | 1.7 |  | MOR07111 IgG (antibody, V domains shown) VH: QVQLVQSGAEVKKPGESLKISCKGSGYSFTNYWIGWVRQMPGKGLEWMGVIMPSDSYTRYSPSFQGQVTISADKSISTAYLQWSSLKASDTAMYYCARYGHGMYGGALDVWGQGTLVTVSS VL: DIVLTQSPATLSLSPGERATLSCRASQSVRSSRLAWYQQKPGQAPRLLIYGASKRATGVPARFSGSGSGTDFTLTISSLEPEDFAVYYCQQFYSKPITFGQGTKVEIKR
